Test [1] deals with T1, human IL2Ra (Peprotech, Germany, #200-02RC) (human, UniProt P01589 22-240).
T1 construct: Coated on the ELISA plate; also called hIL2Ra; IL-2 receptor alpha
T1 sequence (looked up): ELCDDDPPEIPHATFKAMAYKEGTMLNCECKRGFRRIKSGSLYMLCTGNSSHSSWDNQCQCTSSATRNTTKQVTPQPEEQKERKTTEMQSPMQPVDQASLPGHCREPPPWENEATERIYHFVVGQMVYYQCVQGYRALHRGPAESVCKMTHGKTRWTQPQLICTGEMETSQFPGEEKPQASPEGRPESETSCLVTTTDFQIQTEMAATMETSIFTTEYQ
Kind of test: direct binding ELISA on coated IL2Ra. (In general: In an ELISA, binding on a coated surface is turned into a signal by an enzyme label.)

For a further test, the target named is T2, human IL2Ra (human, UniProt P01589 22-240, limits assumed).
T2 construct: coated on the ELISA plate; also called IL-2 receptor alpha
T2 sequence (looked up): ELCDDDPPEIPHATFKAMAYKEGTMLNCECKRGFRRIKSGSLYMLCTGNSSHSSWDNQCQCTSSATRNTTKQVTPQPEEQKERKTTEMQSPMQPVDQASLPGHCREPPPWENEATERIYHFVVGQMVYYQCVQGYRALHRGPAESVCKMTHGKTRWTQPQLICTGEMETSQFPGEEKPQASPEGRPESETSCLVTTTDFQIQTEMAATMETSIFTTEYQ
Kind of test: ELISA on coated IL2Ra, signal ratio to isotype control TPP-10159 at 3.3E-7 M antibody. On the procedure:
IL2RA (Peprotech, Germany, #200-02RC) was coated at 1 or 0 μg/ml (buffer only control) in 30 μl coating buffer (Candor, #113500) per well on a 384 well microtiter plate (Maxisorb, Nunc, #460518) over night at 4-8° C. After two washes with 50 μl/well washing buffer (PBS+0.05% Tween, pH 7.4), the plates were incubated for two hours at room temperature with 50 μl/well SmartBlock (Candor, #113500). After blocking, the plates were washed three times with washing buffer. Then, a dilution series of the respective antibody (1E-7 [M] down to 2E-13 [M]) in PBS+0.05% Tween, 10% SmartBlock were added in 30 μl to the microtiter plate and incubated for 90 min at room temperature. After three additional washes, 30 μl anti mouse IgG HRP-conjugated antibody (Biotechne, HAF007), diluted 1:1000 in PBS+0.05% Tween (pH 7.4), were added per well and incubated for one hour. After three additional washes, a mixture of Amplex red (Invitrogen, #12222, 10 mM stock solution in DMSO) 1:1000 diluted in PBS and H2O2 (30%, Merck, #107209)) diluted 1:10000 in PBS were added as substrate with 30 μl per well and incubated for 20 min in the dark. Relative fluorescence was measured with a microtiter plate reader at 535/590 nm.
IgG converted antibodies TPP-were tested for binding to IL2Ra as described in Example 20. The ratios of the signals obtained at an antibody concentration of 3.3E-7 [M] for IgG converted antibody versus the isotype control TPP-10159 were calculated and are shown in Table E22.

Another test has as its target T3, human IL-11 (human, UniProt P20809 22-199).
T3 construct: Invigate recombinant protein; biotinylated when immobilized in the Di-complex ELISA; also called hIL11; hIL-11
T3 sequence: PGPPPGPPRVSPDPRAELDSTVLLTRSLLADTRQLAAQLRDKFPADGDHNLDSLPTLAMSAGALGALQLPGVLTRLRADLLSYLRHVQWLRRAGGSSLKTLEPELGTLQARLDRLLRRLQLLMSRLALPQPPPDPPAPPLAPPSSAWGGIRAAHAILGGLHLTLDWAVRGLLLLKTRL
The test can be described thus: Tri-complex ELISA, hIL-11 + mIL-11Ra-Fc + hgp130-Fc, inhibition of complex formation. On the procedure: In the Tri-complex ELISA format IL-11 antibodies are tested for their ability to inhibit the formation of a complex consisting of murine or human gp130-Fc fusion protein, with murine or human IL-11, and a murine IL11RA-Fc fusion protein. The assay format was adapted according to FIG. 18 (a, b), depending on whether murine or human IL-11 IgG antibodies were tested.
(§1) IgG converted antibodies were subjected to the experimental assay procedure described in Example 19 and IC50 [M], respectively efficacy (%) were calculated accordingly.

Another test has as its target T4, murine IL-11 (mouse, UniProt P47873 22-199).
T4 construct: Invigate recombinant protein; biotinylated when immobilized in the Di-complex ELISA; also called mIL11; mIL-11
T4 sequence: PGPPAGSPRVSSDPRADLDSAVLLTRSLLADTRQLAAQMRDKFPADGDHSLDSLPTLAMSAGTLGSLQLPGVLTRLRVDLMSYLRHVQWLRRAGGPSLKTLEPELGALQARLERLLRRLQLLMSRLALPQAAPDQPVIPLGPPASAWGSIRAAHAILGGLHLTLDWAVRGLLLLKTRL
The test can be described thus: Tri-complex ELISA, mIL-11 + mIL-11Ra-Fc + mgp130-Fc, inhibition of complex formation. On the procedure: In a first step, 25 μl of goat anti human IgG (Sigma, #12136), diluted 1:1000 in coating buffer (Candor, #121125) was coated on the plate at 4° C. overnight. Next day, the plate was washed one time with 50 μl PBST and then blocked with 50 μl SmartBlock (Candor, #113125) for one hour at room temperature (RT). […] After three additional washes of the coated and blocked microtiter plate with PBS-T, 25 μl of each mixture were added and the assay plate was incubated for one hour at room temperature. After three additional washes, anti-mouse-gp130 biotinylated antibody (R&D, #BAF468) or anti-human gp130 biotinylated antibody (R&D, #BAF228), both 1:1000 in 10% SmartBlock PBS-T, was added and incubated for 1 hour at RT. After three additional washes, a Streptavidin-Peroxidase conjugate (Sigma, #S5512) 1:1000 in SmartBlock PBS-T was added and incubated for one hour at room temperature. After a final three washes, AmplexRed (Fisher Scientific, A12222), 1/1000 in PBS, 0,003% H₂O₂, was added as substrate and incubated for 15 min at RT in the dark. Then, the fluorescence was measured with a plate reader at 535/595 nm. Signals from dose responses were used to calculate IC50 values using GraphPad Prism software. Efficacy was calculated as [(signal measured at lowest antibody concentration−signal measured at the highest antibody concentration)×100] divided by (signal measured at lowest antibody concentration−signal measured in the absence of antibody at an IL11 concentration of 8.2E-11 [M]).
as §1

B1: TPP-29697 (bispecific antibody, IgG1)
chain 1: QVQLVESGGGVVQPGRSLRLSCAASGFTFSHYDMHWVRQAPGKGLEWVAVISYHGSVKFYADSVKGRFTISRDNSKNTLYLQMNSLRAEDTAVYYCARTPGFHFDYWGQGTLVTVSSGGGGSGGGGSGGGGSQSVLTQPPSASGTPGQRVTISCSGSSSNIGSNYVSWYQQLPGTAPKLLIYYDDLRPSGVPDRFSGSKSGTSASLAISGLRSEDEADYYCSAWDDSLSGVVFGGGTKLTVLGGGGSGGGGSGGGGSGVECPPCPAPPVAGPSVFLFPPKPKDTLMISRTPEVTCVVVGVSHEDPEVKFNWYVDGVEVHNAKTKPREEQYNSTYRVVSVLTVLHQDWLNGKEYKCKVSNKQLPSPIEKTISKAKGQPREPQVYTLPPCRDELTKNQVSLWCLVKGFYPSDIAVEWESNGQPENNYKTTPPVLDSDGSFFLYSKLTVDKSRWQQGNVFSCSVMHEALHNHYTQKSLSLSPGK
chain 2: EVQLLESGGGLVQPGGSLRLSCAASGFTFSSYGMHWVRQAPGKGLEWVAVISYDGSYKYYADSVKGRFTISRDNSKNTLYLQMNSLRAEDTAVYYCAAGVPDYWGQGTLVTVSSGGGGSGGGGSGGGGSQSVLTQPPSASGTPGQRVTISCSGSSSNIGSDYDVHWYQQLPGTAPKLLIYSNEERPSGVPDRFSGSKSGTSASLAISGLRSEDEADYYCSAWDSSLSGPVFGGGTKLTVLGGGGSGGGGSGGGGSGVECPPCPAPPVAGPSVFLFPPKPKDTLMISRTPEVTCVVVGVSHEDPEVKFNWYVDGVEVHNAKTKPREEQYNSTYRVVSVLTVLHQDWLNGKEYKCKVSNKQLPSPIEKTISKAKGQPREPQVCTLPPSRDELTKNQVSLSCAVKGFYPSDIAVEWESNGQPENNYKTTPPVLDSDGSFFLVSKLTVDKSRWQQGNVFSCSVMHEALHNHYTQKSLSLSPGK
notes: scFv-kih-hIgG1 with Fc-silencing mutations; arms from TPP-29519 and TPP-29528
In the case of B1, in test [1], the binding result is “no binding (tested: 1E-07 [M] antibody)”.

B2: TPP-29523 (antibody, mouse IgG1)
heavy: QVQLVESGGGVVQPGRSLRLSCAASGFTFSHYDMHWVRQAPGKGLEWVAVISYEGSVKFYADSVKGRFTISRDNSKNTLYLQMNSLRAEDTAVYYCARTPGFHFDYWGQGTLVTVSSAKTTPPSVYPLAPGSAAQTNSMVTLGCLVKGYFPEPVTVTWNSGSLSSGVHTFPAVLQSDLYTLSSSVTVPSSTWPSETVTCNVAHPASSTKVDKKIVPRDCGCKPCICTVPEVSSVFIFPPKPKDVLTITLTPKVTCVVVDISKDDPEVQFSWFVDDVEVHTAQTQPREEQFNSTFRSVSELPIMHQDWLNGKEFKCRVNSAAFPAPIEKTISKTKGRPKAPQVYTIPPPKEQMAKDKVSLTCMITDFFPEDITVEWQWNGQPAENYKNTQPIMDTDGSYFVYSKLNVQKSNWEAGNTFTCSVLHEGLHNHHTEKSLSHSPGK
light: QSVLTQPPSASGTPGQRVTISCSGSSSNIGSNYVNWYQQLPGTAPKLLIYYDDLRPSGVPDRFSGSKSGTSASLAISGLRSEDEADYYCSAWDDSLSGVVFGGGTKLTVLGQPKSSPSVTLFPPSSEELETNKATLVCTITDFYPGVVTVDWKVDGTPVTQGMETTQPSKQSNNKYMASSYLTLTARAWERHSSYSCQVTHEGHTVEKSLSRADCS
notes: mIgG1, Lambda
In general, IC50 refers to the concentration that inhibits the measured activity by half. Turning to B2, the “Antibody/Isotype Control Ratio of IL-2Ra Binding Signals” value (“Antibody/Isotype Control Ratio” below) with human IL2Ra is 1.2 ratio. For the same molecule, in the test with human IL-11, the “Efficacy (%)” value amounted to 84.3% and the IC50 worked out at 2.1 nM. In the test with murine IL-11, the “Efficacy (%)” value worked out at 84.3% and the IC50 was found to be 0.12 nM.

B3: TPP-29521 (antibody, mouse IgG1)
heavy: QVQLVESGGGVVQPGRSLRLSCAASGFTFSHYDMHWVRQAPGKGLEWVAVISYEGSNKFYADSVKGRFTISRDNSKNTLYLQMNSLRAEDTAVYYCARTPGFHFDYWGQGTLVTVSSAKTTPPSVYPLAPGSAAQTNSMVTLGCLVKGYFPEPVTVTWNSGSLSSGVHTFPAVLQSDLYTLSSSVTVPSSTWPSETVTCNVAHPASSTKVDKKIVPRDCGCKPCICTVPEVSSVFIFPPKPKDVLTITLTPKVTCVVVDISKDDPEVQFSWFVDDVEVHTAQTQPREEQFNSTFRSVSELPIMHQDWLNGKEFKCRVNSAAFPAPIEKTISKTKGRPKAPQVYTIPPPKEQMAKDKVSLTCMITDFFPEDITVEWQWNGQPAENYKNTQPIMDTDGSYFVYSKLNVQKSNWEAGNTFTCSVLHEGLHNHHTEKSLSHSPGK
light: QSVLTQPPSASGTPGQRVTISCSGSSSNIGSNYVSWYQQLPGTAPKLLIYYDDLRPSGVPDRFSGSKSGTSASLAISGLRSEDEADYYCSAWDDSLSGVVFGGGTKLTVLGQPKSSPSVTLFPPSSEELETNKATLVCTITDFYPGVVTVDWKVDGTPVTQGMETTQPSKQSNNKYMASSYLTLTARAWERHSSYSCQVTHEGHTVEKSLSRADCS
notes: mIgG1, Lambda
Regarding B3, the “Antibody/Isotype Control Ratio” value in the test with human IL2Ra worked out at 0.7 ratio. The “Efficacy (%)” value in the test with human IL-11 and in the test with murine IL-11 was 85.7% in each case. In addition, the results for the IC50 with human IL-11 and in the test with murine IL-11 were 1.8 nM and 0.092 nM, respectively.

B4: TPP-29520 (antibody, mouse IgG1)
heavy: QVQLVESGGGVVQPGRSLRLSCAASGFTFSHYDMHWVRQAPGKGLEWVAVISYSGSVKFYADSVKGRFTISRDNSKNTLYLQMNSLRAEDTAVYYCARTPGSHFDYWGQGTLVTVSSAKTTPPSVYPLAPGSAAQTNSMVTLGCLVKGYFPEPVTVTWNSGSLSSGVHTFPAVLQSDLYTLSSSVTVPSSTWPSETVTCNVAHPASSTKVDKKIVPRDCGCKPCICTVPEVSSVFIFPPKPKDVLTITLTPKVTCVVVDISKDDPEVQFSWFVDDVEVHTAQTQPREEQFNSTFRSVSELPIMHQDWLNGKEFKCRVNSAAFPAPIEKTISKTKGRPKAPQVYTIPPPKEQMAKDKVSLTCMITDFFPEDITVEWQWNGQPAENYKNTQPIMDTDGSYFVYSKLNVQKSNWEAGNTFTCSVLHEGLHNHHTEKSLSHSPGK
light: QSVLTQPPSASGTPGQRVTISCSGSSSNIGSNYVNWYQQLPGTAPKLLIYYDDLRPSGVPDRFSGSKSGTSASLAISGLRSEDEADYYCSAWDDSLSGVVFGGGTKLTVLGQPKSSPSVTLFPPSSEELETNKATLVCTITDFYPGVVTVDWKVDGTPVTQGMETTQPSKQSNNKYMASSYLTLTARAWERHSSYSCQVTHEGHTVEKSLSRADCS
notes: mIgG1, Lambda
With B4, in the test with human IL2Ra, the “Antibody/Isotype Control Ratio” value was 0.6 ratio. In the test with human IL-11, the “Efficacy (%)” value is 81.8% and the IC50 stood at 1.3 nM. In the test with murine IL-11, the “Efficacy (%)” value is 81.8% and the IC50 is 0.13 nM.
